Source: patent publication US20230204594A1, “SYSTEMS AND METHODS FOR REAL-TIME CELLULAR DRUG-TARGET ENGAGEMENT” (NERD BIO LLC, priority 2021, published 2023)

Tests used:
Assay in all cases: cell-based or functional assay
[1] = molecular target: MTH1 target polypeptide with a 10 amino acid spacer and a carboxy terminal S-tag acceptor peptide
[2] = molecular target: MTH1 target polypeptide with a 3 amino acid spacer and a carboxy terminal S-tag acceptor peptide
[3] = molecular target: MTH1-S-tag fusion protein with no linker between MTH1 and the S-tag peptide

Measured: S protein concentration at which the fluorescent signal starts to saturate

His tagged RNase donor protein (S protein), sequence (P61823 other isoform, or with tags, fused parts or gaps limits assumed): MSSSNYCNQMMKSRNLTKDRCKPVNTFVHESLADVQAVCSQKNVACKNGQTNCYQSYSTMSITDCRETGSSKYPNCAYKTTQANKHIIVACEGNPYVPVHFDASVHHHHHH

His tagged RNase donor protein (S protein) (from UniProt P61823 47-150)
1 to 2 ng/µL: all assays above
